From US6825165B1, “Betacellulin modification” (Takeda Chemical Industries, Ltd., priority 1998, dated 2004)
Values belong to the molecule of their own block, whether it stands above or below them.

Experiments:
[1] = system: PLAP expression AR42J cells; experiment: β cell differentiation promoting activity using human placenta alkaline phosphatase expression AR42J cells, Example 20; assay type: cell-based; conditions: 5 days incubation, read-out: BTC activity EC50
Method: 100 μL of these suspensions were inoculated to 96 well plates and incubated for 5 days at 37° C. in carbon dioxide gas incubators (5% carbon dioxide gas, 95% air). After 5 days, the culture supernatant were treated for 30 minutes at 65° C., and 50 μL was then added to 96-well microplates containing 50 μL of 2×SEAP (2M diethanolamine, 1 mM MgCl2, 20 mM homoarginine). 10 μL of 20 mg/mL p-nitrophenylphosphoric acid (Sigma) was added, and a reaction was brought about for 16 hours at 37° C. The ratio between EGF activity and the BTC activity of all the muteins decreased to about 5% of that of the Met-80 residue betacellulin, and was about the same as that of the Met-76 residue betacellulin, with no apparent influence by the N terminal deletion.

[2] = system: PLAP expression AR42J cells; experiment: Selection of PLAP expression AR42J clones: alkaline phosphatase activity with and without betacellulin; assay type: cell-based; conditions: 20 ng/mL Met-80 residue betacellulin, 4 days culture
Method: (§1) The differentiation promoting activity into β cells was also determined using AR42J cells transformed with the vector having alkaline phosphatase which had been ligated as a reporter downstream of the insulin promoter. Specifically, cells which have differentiated into β cells by addition of betacellulin produce alkaline phosphatase. As a result, by assaying the alkaline phosphatase activity, the differentiation promoting activity into β cells can be quantitatively assayed.
The pMCneopolyA plasmid (Stratagene) containing the neor gene of TnS and the PLAP expression plasmid pTB1898 were simultaneously introduced into AR42J cells using the transfection reagent TransIT™-LT1 (Mirus, PenVera Corporation). The plasmid introduced cells were then cultured for 2 days in DMEM supplemented with 10% fetal calf serum, and the culture was then continued in selection medium supplemented with 800 μg/mL G418 (geneticin, Gibco BRL). Clones were isolated by limiting dilution of cells growing with G418 resistance.
Cells of each clone were seeded to 24 well plates and cultured for 4 days with and without the addition of 20 ng/mL Met-80 residue betacellulin. The supernatant was collected and heat treated for 30 minutes at 65° C., and the alkaline phosphatase activity in the media was then assayed. Clones showing increased alkaline phosphatase activity with the addition of 80-residue betacellulin were selected.

[3] = biological target: T1, EGF receptor (A431 cells, high EGF receptor expression line) (Homo sapiens, UniProt P00533); experiment: EGF binding assay using A431 cells (inhibition of 125I-EGF binding); conditions: for IC50: A431 cells, 0.25 nM 125I-EGF, 90 minutes at 4° C.; for EGF/BTC relative to Met-BTC80: ratio between EGF activity and BTC activity, Met-BTC80 = 100%
T1 construct: human squamous epithelial carcinoma cells A431 (high EGF receptor expression line); endogenous in cells; host or cells: A431 human squamous epithelial carcinoma cells (intact, adherent)
Method: Cell growth promoting activity was assayed by means of the inhibiting activity of binding to ^125I-EGF using human squamous epithelial carcinoma cells A431 (high EGF receptor expression line).
Specifically, 100 μL of A431 cells suspended to a concentration of 10^5 cells/mL using Dulbecco's modified Eagle MEM (DMEM) medium supplemented with 10% fetal calf serum were inoculated to 96 well plates and cultured for 2 days at 37° C. in carbon dioxide gas incubators (5% carbon dioxide gas and 95% air). […] The mixtures were allowed to stand for 90 minutes at 4° C., and then washed 3 times with 200 μL of binding medium, and the cells were lysed in 200 μL of 0.1 N sodium hydroxide aqueous solution containing 1% SDS. The cell lysate was then transferred to scintillation vials, 1 mL of Scintillator A (Wako Pure Chemicals) was added, and the inhibiting activity of binding to ^125I-EGF was assayed with a scintillation counter.

AR42J cells [4] = experiment: β cell differentiation promoting activity using AR42J cells (anti-insulin immunofluorescence), Example 9; assay type: cell-based; conditions: 5 days incubation, anti-insulin antibody/FITC staining (FIG. 5)
Description: Cells of the AR42J cell line derived from pancreatic cancer induced by chemical carcinogens (Christophe, Am. J. Physiol., 266: G963 (1994)) were suspended to a concentration of 10^5 cells/mL using Dulbecco's modified Eagle MEM medium containing 10% fetal calf serum and the Met-77 residue betacellulin prepared in Example 3, the Met-76 residue betacellulin prepared in Example 6, or the Met-80 residue betacellulin prepared in accordance with the method in Japanese Unexamined Patent Application (Kokai) H10-191989. 500 μL of these suspensions were inoculated to chamber slides and incubated for 5 days at 37° C. in carbon dioxide gas incubators (5% carbon dioxide gas, 95% air). After 5 days, the cells were washed once with PBS, fixed in 10% formaldehyde, and treated for 5 min with 0.1% Triton X-100. Block Ace (Snow Brand, Japan) was then added for 40 minutes of blocking at room temperature. Anti-insulin antibodies (by Advanced Immunochemicals) diluted with 10% Block Ace were added, and a reaction was performed for 40 minutes at room temperature. 0.1% Triton X-100 was added, the reaction solution was allowed to stand for 5 minutes at room temperature, and the cells were then washed three times with PBS. FITC (fluorescein isothiocyanate) labeled anti-mouse IgG antibodies (Cappel) diluted with 10% Block Ace were added, and a reaction was brought about for 40 minutes. 0.1% Triton X-100 was added, the reaction solution was allowed to stand for 5 minutes, the cells were then washed three times with PBS, and they were then observed under a fluorescent microscope.

[5] = biological target: T2, EGF receptor on human squamous epithelial carcinoma cells A431 (human, UniProt P00533 25-1210); experiment: competition with 0.25 nM 125I-EGF on A431 cells
T2 construct: whole, on cells; also called A431 cells (high EGF receptor expression line)
Method: The mixtures were allowed to stand for 90 minutes at 4° C., and then washed 3 times with 200 μL of binding medium, and the cells were lysed in 200 μL of 0.1 N sodium hydroxide aqueous solution containing 1% SDS.

AR42J cells [6] = experiment: β cell differentiation promoting activity using AR42J cells (anti-insulin immunofluorescence), Example 26; assay type: cell-based; conditions: 5 days incubation
Method: Cells of the AR42J cell line derived from pancreatic cancer induced by chemical carcinogens (Christophe, Am. J. Physiol., 266: G963 (1994)) were suspended to a concentration of 10^5 cells/mL in Dulbecco's modified Eagle MEM medium containing 10% fetal calf serum and one of hBTC50, Mutein A, Mutein B, or the 80-residue betacellulin (hBTC80) prepared in accordance with the method in Japanese Unexamined Patent Application (Kokai) H10-191989. 500 μL of these suspensions was inoculated on chamber slides and incubated for 5 days at 37° C. in carbon dioxide gas incubators (5% carbon dioxide gas, 95% air). After 5 days, the cells were washed once with PBS, fixed in 10% formaldehyde, and treated for 5 min with 0.1% Triton X-100. Block Ace (Snow Brand, Japan) was then added for 40 minutes of blocking at room temperature. Anti-insulin antibodies (by Advanced Immunochemicals) diluted with 10% Block Ace were added, and reacted for 40 minutes at room temperature. 0.1% Triton X-100 was added, the reaction solution was allowed to stand for 5 minutes at room temperature, and the cells were then washed three times with PBS. FITC (fluorescein isothiocyanate) labeled anti-mouse IgG antibodies (Cappel) diluted with 10% Block Ace were added, and a reaction was brought about for 40 minutes. 0.1% Triton X-100 was added, the reaction solution was allowed to stand for 5 minutes, the cells were then washed three times with PBS, and they were then observed under a fluorescent microscope.

[7] = system: PLAP expression AR42J cells; experiment: β cell differentiation promoting activity using PLAP expression AR42J cells, Example 12; assay type: cell-based; conditions: 5 days, varying concentrations (FIG. 6)
Method: as §1
The PLAP expression AR42J cells constructed in Example 11 were suspended to a concentration of 10^5 cells/mL using Dulbecco's modified Eagle MEM medium containing 10% fetal calf serum and varying concentrations of the Met-77 residue betacellulin prepared in Example 3, the Met-76 residue betacellulin prepared in Example 6, or the Met-80 residue betacellulin prepared in accordance with the method in Japanese Unexamined Patent Application (Kokai) H10-191989. 100 μL of these suspensions were inoculated to 96 well plates and incubated for 5 days at 37° C. in carbon dioxide gas incubators (5% carbon dioxide gas, 95% air). After 5 days, the supernatant was taken and treated for 30 minutes at 65° C., and 50 μL was added to 96-well microplates containing 50 μL of 2×SEAP (2M diethanolamine, 1 mM MgCl2, 20 mM homoarginine). […]

Molecule: BTC2-76: betacellulin mutein lacking one N terminal residue and four C terminal residues, SEQ ID NO: 37
EC50 [1]: 0.12 nM

Molecule: BTC24-76: betacellulin mutein lacking 23 N terminal residues and four C terminal residues, SEQ ID NO: 38
EC50 [1]: 0.03 nM

B1: Met-76 residue betacellulin (ligand)
chain: MDGNSTRSPETNGLLCGDPEENCAATTTQSKRKGHFSRCPKQYKHYCIKGRCRFVVAEQTPSCVCDEGYIGARCERV
notes: Lacks the four C-terminal residues (Asp Leu Phe Tyr); also called Met-BTC76; BTC1-76
IC50 [5]: 95.1 nM

B4: Met-77 residue betacellulin: 77 residue betacellulin lacking three C terminal residues (SEQ ID NO: 1) with N terminal Met (protein)
chain: DGNSTRSPETNGLLCGDPEENCAATTTQSKRKGHFSRCPKQYKHYCIKGRCRFVVAEQTPSCVCDEGYIGARCERVD
modifications: N-terminal Met; Human
Differentiation into insulin-producing β cells (stained cells under fluorescent microscope) (AR42J cells [4]): cells which had differentiated into insulin-producing β cells were found | Promoting activity in inducing differentiation compared with Met-80 residue betacellulin [7]: virtually the same promoting activity in inducing differentiation as the Met-80 residue betacellulin

Further lines, with some results ahead:

IC50 [3]: 1.2 nM | EGF/BTC relative to Met-BTC80 [3]: 100.0% | EC50 [1]: 0.07 nM
Molecule: Met-BTC80: 80 residue human betacellulin (SEQ ID NO: 35) with N terminal Met, prepared by the method of Kokai H10-191989 [reference compound]
PLAP activity (A 405), BTC added ([2]; clone AR1898-033, no BTC added: 0.034): 0.366 A 405 | PLAP activity (A 405), BTC added ([2]; clone AR1898-053, no BTC added: 0.008): 0.089 A 405 | PLAP activity (A 405), BTC added ([2]; clone AR1898-0192, no BTC added: 0.077): 0.752 A 405 | Differentiation into insulin-producing β cells (stained cells under fluorescent microscope) (AR42J cells [4]): cells which had differentiated into insulin-producing β cells were found

IC50 [5]: 1.2 nM
B2: Met-80 residue betacellulin (ligand)
chain: MDGNSTRSPETNGLLCGDPEENCAATTTQSKRKGHFSRCPKQYKHYCIKGRCRFVVAEQTPSCVCDEGYIGARCERVDLFY
notes: Prepared in E. coli by the method of Japanese Kokai H10-191989; The N-terminal Met is retained; also called Met-BTC80; hBTC80
Differentiation into insulin-producing β cells (stained cells under fluorescent microscope) (AR42J cells [6]; anti-insulin antibody/FITC staining): cells which had differentiated into insulin-producing β cells, were found | Incidence of insulin-producing cells (AR42J cells [6]; comparison between the proteins): no differences in the incidence of insulin-producing cells

IC50 [3]: 95.1 nM | EGF/BTC relative to Met-BTC80 [3]: 5.4% | EC50 [1]: 0.3 nM
B3: Met-BTC76: 76 residue betacellulin lacking four C terminal residues (SEQ ID NO: 2) with N terminal Met (protein)
chain: DGNSTRSPETNGLLCGDPEENCAATTTQSKRKGHFSRCPKQYKHYCIKGRCRFVVAEQTPSCVCDEGYIGARCERV
modifications: N-terminal Met; Human
Differentiation into insulin-producing β cells (stained cells under fluorescent microscope) (AR42J cells [4]): cells which had differentiated into insulin-producing β cells were found | Promoting activity in inducing differentiation compared with Met-80 residue betacellulin [7]: virtually the same promoting activity in inducing differentiation as the Met-80 residue betacellulin
